# In article PMC12615776, “Conformational alteration of DOCK5•ELMO1 signalosome on lipid membrane” (Communications Biology, 2025):
# B1: human RhoG (residues 1–191, Q61L mutant), C-terminal His10 (natural protein)
# chain: not shown
# notes: human RhoG, residues 1–191, Q61L; 10 μM GTP and 1 mM MgCl2 were added during purification to obtain the active form; Anchored to the lipid monolayer through His10 and DOGS-NTA(Ni); also called RhoG^Q61L; constitutively active mutant of RhoG; source: E. coli cell-free protein synthesis, purified (HisTrap, TEV cleavage, second HisTrap, SEC Superdex 75); not shown: N11 (modified natural …)
# Target: T1, human ELMO1, full length (residues 1–727), tag cleaved (human, UniProt Q92556 1-727)
# T1 construct: human ELMO1, full length, residues 1–727; Purified as a complex with DOCK5; also called engulfment and cell motility 1; source: FreeStyle 293-F cells, co-expressed with DOCK5, purified (Streptavidin Sepharose, TEV cleavage, SEC Superose 6); not shown: FLAG, N-terminal, cleaved
# Assay: cryo-EM structure; purified DOCK5•ELMO1 complex mixed with a two-fold molar excess of Rac1^G15A-His10 and RhoG^Q61L-His10, pre-incubated on ice at least 1 h in 20 mM HEPES-NaOH pH 7.0, 150 mM NaCl, 1 mM MgCl2 (final 0.4 μM); bound to a lipid monolayer-coated grid [67PC/21PA/6PIP3/6DOGS-NTA Ni (mol%)]; single-particle analysis, C2, 6.98 Å (local 7.52 Å)
# Details: both partners purified
# T1 sequence (Q92556 whole entry, the tested form may be a part): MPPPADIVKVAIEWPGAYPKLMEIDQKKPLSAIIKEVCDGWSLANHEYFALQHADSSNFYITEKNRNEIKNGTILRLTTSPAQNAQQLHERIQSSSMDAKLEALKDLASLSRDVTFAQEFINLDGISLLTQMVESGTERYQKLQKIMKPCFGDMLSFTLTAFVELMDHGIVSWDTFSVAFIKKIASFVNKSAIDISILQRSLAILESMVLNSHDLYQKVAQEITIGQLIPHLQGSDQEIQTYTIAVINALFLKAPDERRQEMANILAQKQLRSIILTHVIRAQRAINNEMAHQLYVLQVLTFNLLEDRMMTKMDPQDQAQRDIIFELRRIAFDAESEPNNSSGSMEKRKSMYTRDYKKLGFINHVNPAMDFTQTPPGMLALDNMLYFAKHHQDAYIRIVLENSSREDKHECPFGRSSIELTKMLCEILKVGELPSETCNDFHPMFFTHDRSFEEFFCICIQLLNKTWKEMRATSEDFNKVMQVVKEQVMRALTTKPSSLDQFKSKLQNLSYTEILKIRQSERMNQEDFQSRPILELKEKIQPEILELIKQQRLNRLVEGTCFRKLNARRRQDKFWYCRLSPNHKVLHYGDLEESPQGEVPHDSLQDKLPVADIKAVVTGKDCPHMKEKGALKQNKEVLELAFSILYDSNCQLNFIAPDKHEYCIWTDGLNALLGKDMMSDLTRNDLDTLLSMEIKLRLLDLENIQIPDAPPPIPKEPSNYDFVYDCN
binder,measurement,value
B1,binding result,binds
